For 1 substance, IC50 of inhibition of telomerase activity in vitro (TRAP assay) results are on record in patent publication US20040142357A1.

For the experiment, the target named is telomerase of HT1080 cells (telomerase-containing fraction, or cellular telomerase in stable HT1080 lines) (human) (UniProt O14746). The experiment can be described thus: cell-based or functional assay.
Chain of telomerase of HT1080 cells (telomerase-containing fraction, or cellular telomerase in stable HT1080 lines) (human) (O14746 whole entry): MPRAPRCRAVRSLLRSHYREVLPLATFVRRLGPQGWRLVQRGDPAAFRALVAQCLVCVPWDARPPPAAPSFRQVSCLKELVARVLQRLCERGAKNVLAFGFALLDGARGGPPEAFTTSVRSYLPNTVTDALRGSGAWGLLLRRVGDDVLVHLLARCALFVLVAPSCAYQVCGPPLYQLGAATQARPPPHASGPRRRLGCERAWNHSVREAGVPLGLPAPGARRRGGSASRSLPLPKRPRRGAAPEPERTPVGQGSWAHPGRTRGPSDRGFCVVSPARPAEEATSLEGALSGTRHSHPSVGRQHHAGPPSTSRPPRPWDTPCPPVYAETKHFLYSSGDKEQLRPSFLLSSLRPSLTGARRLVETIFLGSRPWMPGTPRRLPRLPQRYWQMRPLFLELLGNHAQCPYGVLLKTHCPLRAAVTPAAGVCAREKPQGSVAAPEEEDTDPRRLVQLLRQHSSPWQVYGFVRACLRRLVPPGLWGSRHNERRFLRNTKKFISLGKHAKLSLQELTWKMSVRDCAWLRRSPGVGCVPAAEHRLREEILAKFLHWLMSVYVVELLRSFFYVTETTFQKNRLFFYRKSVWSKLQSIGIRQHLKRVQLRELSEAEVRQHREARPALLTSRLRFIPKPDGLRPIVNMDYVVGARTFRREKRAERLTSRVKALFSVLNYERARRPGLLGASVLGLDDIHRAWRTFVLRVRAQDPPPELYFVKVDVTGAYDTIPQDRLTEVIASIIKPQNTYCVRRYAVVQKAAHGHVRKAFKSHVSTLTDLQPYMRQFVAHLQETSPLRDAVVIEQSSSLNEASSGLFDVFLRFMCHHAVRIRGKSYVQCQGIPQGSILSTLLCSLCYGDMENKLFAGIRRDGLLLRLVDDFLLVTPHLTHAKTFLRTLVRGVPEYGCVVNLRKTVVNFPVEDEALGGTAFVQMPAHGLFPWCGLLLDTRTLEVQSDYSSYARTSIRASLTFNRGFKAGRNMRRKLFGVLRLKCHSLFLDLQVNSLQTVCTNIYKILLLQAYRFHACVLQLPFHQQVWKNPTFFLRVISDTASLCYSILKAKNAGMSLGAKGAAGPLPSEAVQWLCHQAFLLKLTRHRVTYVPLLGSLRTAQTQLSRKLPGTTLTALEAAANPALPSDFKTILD

With “His-PinX1 (N-terminal His fusion of PinX1, pET28a) (from UniProt Q96BK5 1-328)”, the IC50 of inhibition of telomerase activity in vitro (TRAP assay) stood at 25 nM.
